The record followed here is US20240368286A1 (SHANGHAI JMT BIO TECHNOLOGY, published 2024).

Experiment [1] addresses T1, Mouse GFRAL protein (Biacore analyte) (mouse, UniProt Q6SJE0 20-349, limits assumed).
T1 construct: also called mGFRAL
T1 sequence (looked up): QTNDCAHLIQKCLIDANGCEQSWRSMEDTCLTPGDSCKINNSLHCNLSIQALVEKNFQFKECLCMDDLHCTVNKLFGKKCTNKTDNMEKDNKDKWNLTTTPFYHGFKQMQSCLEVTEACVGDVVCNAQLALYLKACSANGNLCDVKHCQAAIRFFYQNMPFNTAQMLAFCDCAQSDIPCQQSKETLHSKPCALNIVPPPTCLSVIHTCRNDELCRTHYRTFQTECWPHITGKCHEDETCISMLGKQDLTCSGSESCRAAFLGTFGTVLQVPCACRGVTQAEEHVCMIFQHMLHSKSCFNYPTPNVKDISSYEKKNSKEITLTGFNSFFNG
Description: Biacore SPR, antibody captured via anti-human Fc on CM5, GFRAL injected, 25 C. As to the method: (§1) Binding affinity assays were performed for three antibody strains 168A7, 8E10 and 26D7 based on the Biacore affinity assay. The binding affinities of purified antibodies to human or mouse GFRAL were assessed by measuring the equilibrium dissociation constants (KD). The anti-human Fc antibody was immobilized in the flow cell of the CM5 chip according to the instructions of the amino-coupled kit (catalogue number: BR100050, Cytiva). Purified antibodies (˜300 RU) were captured on flow cells 2, 3 and 4 using flow cell 1 as a reference. Human or mouse GFRAL protein (in an HBS-EP buffer) was then injected at a flow rate of 30 μL/min and the binding kinetics were evaluated at 25° C. The results were as follows (FIGS. 1A-1C, Table 4)

The target in experiment [2] is T2, Human GFRAL protein (Biacore analyte) (human, UniProt Q6UXV0 19-351, limits assumed).
T2 construct: also called hGFRAL
T2 sequence (looked up): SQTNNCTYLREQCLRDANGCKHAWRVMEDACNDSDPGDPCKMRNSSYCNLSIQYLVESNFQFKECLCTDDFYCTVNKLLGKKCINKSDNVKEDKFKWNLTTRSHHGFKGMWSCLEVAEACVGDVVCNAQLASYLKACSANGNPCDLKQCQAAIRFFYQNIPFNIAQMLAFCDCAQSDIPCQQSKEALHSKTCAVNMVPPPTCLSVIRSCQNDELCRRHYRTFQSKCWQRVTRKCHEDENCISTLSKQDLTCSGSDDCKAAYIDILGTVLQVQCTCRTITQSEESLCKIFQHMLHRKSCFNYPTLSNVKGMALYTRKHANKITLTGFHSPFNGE
The experiment is described as above. As to the method:
as §1

The next experiment concerns the target T3, Mouse GFRAL-Fc protein (mouse, UniProt Q6SJE0 20-349, limits assumed).
T3 construct: not shown: Fc
T3 sequence (looked up): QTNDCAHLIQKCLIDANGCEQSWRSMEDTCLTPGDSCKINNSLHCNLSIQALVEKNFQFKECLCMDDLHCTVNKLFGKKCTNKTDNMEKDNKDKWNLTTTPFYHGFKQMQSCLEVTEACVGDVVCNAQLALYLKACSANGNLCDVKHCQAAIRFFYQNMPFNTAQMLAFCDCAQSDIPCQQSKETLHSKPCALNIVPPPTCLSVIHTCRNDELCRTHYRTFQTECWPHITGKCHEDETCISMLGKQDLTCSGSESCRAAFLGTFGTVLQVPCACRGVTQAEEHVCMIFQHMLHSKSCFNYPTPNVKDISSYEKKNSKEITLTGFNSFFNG
Description: ELISA, antigen coated on plate, purified antibody titrated, HRP anti-mouse IgG detection. Here is the method:
(§2) The ELISA assay had the following protocols. Human GFRAL-His protein, cynomolgus monkey GFRAL-His protein, or mouse GFRAL-Fc protein were coated on 96-well plates, and after blocking the wells with PBS/1% BSA solution, the hybridoma supernatant or purified antibodies were added to the reaction wells. After incubation for 1 hour at room temperature, HRP-labeled anti-mouse IgG (Fab region) antibody was added to the reaction wells to incubate for an additional hour at room temperature. After the substrate and stop solution were added successively, the OD₄₅₀ values were read. The OD₄₅₀ values were used to verify and assess the binding ability of the antibodies to the GFRAL proteins.
Background: ELISA stands for enzyme-linked immunosorbent assay.

For experiment [3], the target named is Cynomolgus monkey GFRAL-His protein (cynomolgus monkey). Described as above. As to the method: as §2
The next experiment concerns the target T4, Human GFRAL-His protein (human, UniProt Q6UXV0 19-351).
T4 construct: also called human GFRAL-His fusion protein; not shown: His tag
T4 sequence (looked up): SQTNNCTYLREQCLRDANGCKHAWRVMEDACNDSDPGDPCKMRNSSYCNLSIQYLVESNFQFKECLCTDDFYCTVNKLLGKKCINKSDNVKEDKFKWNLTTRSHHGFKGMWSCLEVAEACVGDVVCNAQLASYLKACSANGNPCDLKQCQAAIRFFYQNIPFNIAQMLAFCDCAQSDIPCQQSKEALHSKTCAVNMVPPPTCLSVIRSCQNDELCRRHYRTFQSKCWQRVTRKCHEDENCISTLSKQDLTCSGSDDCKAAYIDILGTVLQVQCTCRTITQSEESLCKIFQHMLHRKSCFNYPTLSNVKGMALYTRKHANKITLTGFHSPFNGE
Described as above. As to the method: as §2

Experiment [4] concerns the target T5, Mouse GFRAL (mGFRAL) on HEK293 reporter cells with mouse RET (mouse, UniProt Q6SJE0 20-393).
T5 sequence (looked up): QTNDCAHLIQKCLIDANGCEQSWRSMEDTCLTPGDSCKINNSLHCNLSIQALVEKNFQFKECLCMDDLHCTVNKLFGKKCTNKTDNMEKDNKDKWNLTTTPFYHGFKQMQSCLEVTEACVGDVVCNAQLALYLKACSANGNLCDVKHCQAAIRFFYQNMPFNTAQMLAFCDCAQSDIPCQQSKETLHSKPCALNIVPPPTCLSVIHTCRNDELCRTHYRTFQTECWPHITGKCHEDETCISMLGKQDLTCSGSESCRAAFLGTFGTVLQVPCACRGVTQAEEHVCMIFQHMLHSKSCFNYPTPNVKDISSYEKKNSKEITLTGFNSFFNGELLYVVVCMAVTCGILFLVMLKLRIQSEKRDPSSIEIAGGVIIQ
As to the kind of experiment: cell-based or functional assay.

Experiment [5] concerns the target T6, Human GFRAL (hGFRAL) on HEK293 reporter cells with human RET (human, UniProt Q6UXV0 19-394).
T6 sequence (looked up): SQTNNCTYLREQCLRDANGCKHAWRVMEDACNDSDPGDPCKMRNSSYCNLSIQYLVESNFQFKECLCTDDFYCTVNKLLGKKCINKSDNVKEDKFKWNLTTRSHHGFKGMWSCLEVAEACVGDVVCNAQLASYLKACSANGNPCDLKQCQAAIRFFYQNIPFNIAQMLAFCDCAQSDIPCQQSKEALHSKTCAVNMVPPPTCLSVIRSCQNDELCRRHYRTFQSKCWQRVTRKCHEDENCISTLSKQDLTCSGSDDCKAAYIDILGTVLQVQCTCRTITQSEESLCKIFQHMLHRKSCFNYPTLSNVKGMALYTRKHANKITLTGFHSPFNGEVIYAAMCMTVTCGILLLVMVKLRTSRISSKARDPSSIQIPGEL
Description: cell-based or functional assay.

The target in experiment [6] is Cynomolgus monkey GFRAL protein (Biacore analyte) (cynomolgus monkey). As to the kind of experiment: Biacore SPR, humanized antibody captured via murine anti-human Fc on CM5, GFRAL injected in 2-fold dilutions, 25 C. Here is the method:
(§3) Specific protocols are as follows.
(§4) The surface of the CM5 chip was activated using 400 mM EDC and 100 mM NHS at a flow rate of 10 μl/min according to the instructions for the amino-coupled kit (Cat. No. BR100050, Cytiva). Then, the murine anti-human Fc antibody was immobilized in the test channel (Fc2) and the reference channel (Fc1) of the CM5 chip. Finally, the chip was blocked with 1 M ethanolamine at a flow rate of 10 μl/min; The humanized antibody (˜300 RU) diluted to 5 μg/ml was then captured on the assay channel (Fc2), and ligand capture were not carried out on the reference channel. Human, mouse or cynomolgus monkey GFRAL proteins (in a HBS-EP buffer) with 2-fold doubling dilutions was subsequently injected at a flow rate of 30 μL/min and the binding kinetics were evaluated at 25° C. The results are as follows (see Table 12)
(In SPR one partner is held on a chip, and binding of the other changes the refractive index at the surface.)

The target in experiment [7] is T1, Mouse GFRAL protein (Biacore analyte). Described as above. As to the method:
as §3, §4

Experiment [8] has as its target T2, Human GFRAL protein (Biacore analyte). The experiment is described as above. As to the method:
as §3, §4

Experiment [9] has as its target T5, Mouse GFRAL (mGFRAL) on HEK293 reporter …. Description: cell-based or functional assay. This is another data set of the same source.
The target of experiment [10] is T6, Human GFRAL (hGFRAL) on HEK293 reporter …. As to the kind of experiment: cell-based or functional assay. The source holds these as a separate data set.

Read-outs that look alike come from different tables or passages of the source.

B1: 26D7 (antibody, V domains shown)
VH: QIQLVQSGPELKKPGETVKISCKVSGYTFTDYGMNWVKQTPGKDLKWVGWINTYTGEPTYADDFKDRFAFSLEASASTAYLQINNLKNEDTATYFCARRYGYDAGIDCWGQGTTLTVSS
VL: NIVLTQSPPSLAVSLGQRATISCRASESVDSYGNNLMHWYQQKPGQPPKLLIYLASYLESGVPARFSGSGSRTDFTLTIDPVEADDAATYYCQQNNEDPWTFGGGTKLEIK
notes: Murine hybridoma antibody, purified; also called m26D7; M26D7
What is called koff is a measure of how fast the partners let go of each other. Broadly, the Kd is the concentration at which binding is half-saturated. By EC50 is commonly meant the concentration giving half of the maximal effect. Turning to B1, the dissociation rate constant (koff) in experiment [1] is 0.000293 s⁻¹; in experiment [2], 9.37e-05 s⁻¹. Besides, the Kd in experiment [2] worked out at 0.0153 nM. Moreover, the EC50 in the experiment with Mouse GFRAL-Fc protein is 0.15 nM; in experiment [3] it was 0.06 nM; with Human GFRAL-His protein, 0.07 nM. Besides, the “IC50 (nM), luciferase reporter gene assay, Mouse GFRAL/mouse RET” value (shortened to “IC50 (nM) … Mouse GFRAL/mouse RET”) in experiment [4] came to 0.76 nM. For the same molecule, the “IC50 (nM), luciferase reporter gene assay, Human GFRAL/human RET” value (“IC50 (nM) … Human GFRAL/human RET” for short) in experiment [5] is 6.35 nM.

B2: 26D7H3aL2c (antibody, V domains shown)
VH: QVQLVQSGAEVKKPGASVKISCKVSGYTFTDYGMNWVRQTPGQGLKWVGWINTYTGEPTYADDFKDRFTFTLDASTSTAYMELRSLRSDDTAVYFCARRYGYDAGIDAWGQGTLVTVSS
VL: EIVLTQSPGTLSLSPGERATLSCRASESVESYGNNLMHWYQQKPGQAPRLLIYLASYLESGVPDRFSGSGSGTDFTLTISRLEPEDFATYYCQQNNESPWTFGQGTKVEIK
notes: Humanized; also called humanized anti-GFRAL antibody 26D7H3aL2c
For the molecule B2, the figures for the Kd in experiment [6] and in experiment [8] were 0.131 nM and 0.0465 nM, respectively. The figures for the koff in experiment [6], in experiment [7] and in experiment [8] were 0.000193 s⁻¹, 0.000215 s⁻¹ and 0.000125 s⁻¹, respectively. The “IC50 (nM) … Mouse GFRAL/mouse RET” value in [9] worked out at 1.9 nM. Further, the “IC50 (nM) … Human GFRAL/human RET” value in experiment [10] was found to be 8.3 nM.

B3: 2D4 (antibody, V domains shown)
VH: EVNLVESGGGLVKPGGPLKLSCAASGFTFSSFVMSWVRQTPEKRLEWVASITSGGTTFYPDSVKGRFTISRDNARNILYLQMSNLRSGDTAMYYCARGPPQFSSLSMDYWGQGTSVTVSS
VL: DIVMTQSQKFMSTSVGDRITITCKASQNVGTAVSWFQQKPGQVPKLLIYSASNRYTGVPDRFTGSGSGTEFTLTISNIQSEDLADYFCQQYSSLFTFGSGTKLEIK
notes: Murine hybridoma antibody, purified
For B3, the EC50 with Mouse GFRAL-Fc protein turned out to be 0.08 nM; in experiment [3], 0.1 nM; with Human GFRAL-His protein, 0.09 nM. Further, in experiment [4], the “IC50 (nM) … Mouse GFRAL/mouse RET” value was 2.23 nM. In addition, the “IC50 (nM) … Human GFRAL/human RET” value in experiment [5] is 11.6 nM.

B4: 165C5 (antibody, V domains shown)
VH: EVKLVESGGGLVKPGGSLKLSCAASGFTFSSYAMSWVRQTPEKRLEWVASITTGGSTYYLDSVRGRFTISRDNARNILSLQMSSLRSEDTAIYYCARSLIITATGFDYWGQGTTLTVSS
VL: DIVMTQSQKFMSISVGDRVNITCRASQDVGTAVAWYQQKPGQSPKLLIYSASNRYTGVPNRFTGSGSGTDFTLAISNMQSEDLADYFCQQYSIYYTFGGGTKLEIK
notes: as for B3
On to B4, for which the EC50 with Mouse GFRAL-Fc protein is 0.12 nM; in experiment [3], 0.03 nM; with Human GFRAL-His protein, 0.27 nM. The “IC50 (nM) … Mouse GFRAL/mouse RET” value in experiment [4] amounted to 7.22 nM. In addition, the “IC50 (nM) … Human GFRAL/human RET” value in experiment [5] amounted to 55.5 nM.

B5: 26D7H5bL5a (antibody, V domains shown)
VH: QVQLVQSGAEVKKPGASVKVSCKVSGYTFTDYGMNWVRQAPGQGLEWMGWINTYTGEPTYAQKLQGRVTFTTDTSTSTAYMELRSLRSDDTAVYYCARRYGYDAGIDAWGQGTTVTVSS
VL: DIQMTQSPSSLSASVGDRVTITCRASESVESYGNNLMHWYQQKPGKAPKLLIYLASYLESGVPSRFSGSGSGTDFTLTISSLQPEDFATYYCQQNNESPWTFGGGTKLEIK
notes: Humanized; also called humanized anti-GFRAL antibody 26D7H5bL5a
For B5, the Kd in [6] came to 0.246 nM; in experiment [8], 0.119 nM. Besides, the koff in [6] amounted to 0.000231 s⁻¹; in experiment [7], 0.000314 s⁻¹; in experiment [8], 0.000268 s⁻¹. Moreover, the “IC50 (nM) … Mouse GFRAL/mouse RET” value in [9] turned out to be 0.9 nM. In experiment [10], the “IC50 (nM) … Human GFRAL/human RET” value worked out at 11.8 nM.
